Source: the supplement of paper PMC9170038

Test system: MS2 coat protein
Assay: apparent KD of MS2 coat protein; higher = weaker reporter binding
Conditions: Eterna round: R107
How it was run: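 Normalised binding curves from single clusters were fitted, and the median fit for each design is given as apparent KD. The clusters held designed RNA switches transcribed on-chip from Illumina sequencing clusters. These were titrated with SNAP-549-labelled MS2 coat protein (twofold steps from 0.7 or 1.5 nM to 3 µM, 0.8–1.5 h to 10–20 min per step) in 100 mM Tris-HCl pH 7.5, 80 mM KCl, 4 mM MgCl2, without or with constant ligand.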

[1] = input ligand: theophylline 20 uM
[2] = input ligand: theophylline 2 mM
[3] = input ligand: tryptophan 2.4 mM

Sequence	apparent KD of MS2 coat protein (input ligand: arginine 13.2 mM) [nM]	apparent KD of MS2 coat protein (input ligand: none) [nM]	apparent KD of MS2 coat protein [1] [nM]	apparent KD of MS2 coat protein [2] [nM]	apparent KD of MS2 coat protein [3] [nM]
AUGUCGUUGAAUAUAGCGGCUUGGUGUGAUACCAGAAUGAUCUAAUUCCCUUGGCAGCAUUACAUGAGGAUCACCCAUGUUCCAG [SSTheo A #21]	23.6	39.1	47.4	57.3	48.7
GCGAUGGAGCGAAGGAGCGUGCUGGUACAUGAGGAUCACCCAUGUGAACCGCAGCGCUAAGCACAGGUAGGUCGCGCUCCAUCGC [EAB NP+V+V2 #14]	102	28.8	28.4	23	41.9
CUCCCGUGGUCGGCCGCCACUGGAGGCCUCGCGCGACAUGAGGAUCACCCAUGUUGGCCCGGCUUCAGGACCGGGAUCGCGUGAG [#1 Same State - Tryptophan B Attempt #8 (HarryS)]	12.2		16.2	12.6	
GCAUCCUAGUCGGCCGCCACUGCAGGAUCGGCGGCAGAUCCUCAACAUGAGGAUCACCCAUGUAGCAGGACCGGGACUAGGAUGC [(Trp1)-(TM)''-(TM)'-(Ms2)-(Trp2)_Design2]	36.3	91.6	80.3	48.1	99.8
AUUAUCAUGGUCAUUUAUAUUUCGUCAGAUACCAGACUAGAUAUAGUCCCUUGGCAGCUGUUACAUGAGGAUCACCCAUGUUAUU [JR_ExcTheophyA_Sub018]	44.7		70.6		103
UUCACAUGGUAUGAAUAUACAUAUAAGAAACGAGGACCGGUACGGCCGCCACUCGUGCCGGAAACAUGAGGAUCACCCAUGUGUU [AK1.1 Exclusion TrypA mod IceBolt]	27		55.9	64.8	
AGCACGGUGAUGGUAGCCGGACGAUAAGUACGAGGACCGGUACGGCCGCCACUCGAAGUCCUACGACAUGAGGAUCACCCAUGUA [Same State Trp A GF11]	30.4		47	73.6	
ACCGGCACCUAGGAUACCAGAUCCACAACAAACAUGAGGAUCACCCAUGUAUAAAGUGGUAUCCCUUGGCAGCCUGUGACAAUCG [theeternabot_sameState_MS2_Theo_B_19]	17		21.4		15.8
CUAUAUUUAUCGGCCGCCACUUACUCAUGAGGUAACAACAUGAGGAUCACCCAUGUUUGAGGAUCAAGGACCGGGAUAAAUAUAG [AstrosSSTryB#17]	25.4		34.2	31	
AUCUUUGGCGAUCUGGGAAAACCAGAUCGACGAGGACCGGUACGGCCGCCACUCGUGUAUAAUAUACAUGAGGAUCACCCAUGUA [#18 Tryptophan A Same State]	27.8		61.1	64.7	
AGCGUAUAGACGGAUACCAGCGCCGAUUAACAUGAGGAUCACCCAUGUAGUGUGGGUGGACGCCCUUGGCAGCCGAGUAUAGGUA [#07 Exclusion-TheophyllineB]	391	89.7	115	360	221
AACAUGAGGAUCACCCAUGUACCUUUCGAUCGAGGACCGGUACGGCCGCCACUCGAAAACAUGAGGAUCACCCAUGUUCAACAGG [Tryp A SS t3]	58.7		128	154	
ACAUGAGGAUCACCCAUGUAAUCAUCAGAAGGAGCGUGGAAUAACACAGGUAGGUCGCUGAUGUUAUAUUAAUCUUAUUCGUAAA [JR_ExcArginiA_Sub003]	22	13.6	18.7	13.2	14.2
UAUAUAUAAACAUGAGGAUCACCCAUGUAACGAGGACCGGUACGGCCGCCACUCGGCCGGCAAGGGAGAGGACGGGAAACCGUCG [ETA NP+V+V2 #27]	12.5	13.4	19.3	15.9	17.1
ACUUUGUCGGGUGAUACCAGCCUCGGCAAAUCUCGUGCCGAACAUGAGGAUCACCCAUGUGGCCCUUGGCAGCACAUGACAACUC [Cezara]	26.3		546		912
AGCACUGUGACGGCCGCCACUAUAUUAGGGUGGUCAGGUUCAUAAAUACAUGAGGAUCACCCAUGUAGGACCGGGUCUCAGUGCA [Omei Trp Exc B A v3]	11.1		13.8	12.3	
GGACUAACCAGAAGGAGCGGCACAAGCAGAAACUGCAAUCCUCCGCACGAGGAUCACCCGUGUCAGGUAGGUCGCUGGUUAGUCG [ArgBX 28]	49.2	56.8	74.6	80.4	63.7
UGACAUUGCUCAGAUACCAGACAUGAGCAUCAGCCAUGUACCAAGAGUACAUGUUAAAGUGUCCCUUGGCAGCUGAGCAAUGUCU [Mod of Eli's TheoBX5 #AlternateMS2 v3]	56.4	70.9	193	603	72
ACAUGAGGAUCACCCAUGUUUGUUGUUCCUCGAGGACCGGUACGGCCGCCACUCGAACGAGUGGCGCGCGCGCGCGCGCGCGCGC [aMa]	11.6	13.3	36.4	16.4	12.6

Sequence	apparent KD of MS2 coat protein (input ligand: arginine 13.2 mM) [nM]	apparent KD of MS2 coat protein (input ligand: none) [nM]	apparent KD of MS2 coat protein [1] [nM]	apparent KD of MS2 coat protein [2] [nM]	apparent KD of MS2 coat protein [3] [nM]
GCGAUGGAGCGAAGGAGCGUGCUGGUACAUGAGGAUCACCCAUGUGAGUCGCAUCGCUAAGCACAGGUAGGUCGCGCUCCAUCGC [EAB NP+V+V2 #10]	48.6	58.4	85	83	66.5
UGUAUGGACUGAAGGAGCGACUCAAAAUAACAUGAGGAUCACCCAUGUAAGGCGAAAGCCGGUCAGGUAGGUCGCAGUCCAUACU [ArgBX 3]	13.7	11.3	16.1	10.6	11.6
UUAUAAGUACCGGUCCUCAGAUCCUCAUGACGAGGACCGGUACGGCCGCCACUCGAAACAUGAGGAUCACCCAUGUAAUAAUAAU [Brourdmod05]	18.8		29.3	27.7	
CGAAUAUAGACGGCCGCCACUCUACAAACAUGAGGAUCACCCAUGUUCACAUAGUGGAAACACAUGAGGACCGGGUCAUAGGCAU [#18 Same State - Tryptophan B]	19.2		25.4	21.3	
CUAUAUGGAAACAUAUAGAAGCGAAAGCAGCGAGGACCGGUACGGCCGCCACUCGCAGAGUGGUGGACAUGAGGAUCACCCAUGU [Design 2]	43.8	83.2	111	74.6	40
UAUCGUCAGACGGCCGCCACUAGAACAUGAGGAUCACCCAUGUAAGUGGCCGGUCUCCUCAUGACUAGGACCGGGUCUGACGAAU [(Trp1)-(Ms2)-(T)'-(M)'-(Trp2)_Design18]	9.69		14.1	10.9	
GGACUAACCAGAAGGAGCGGCACGCAGAAACUGCAAAAUCCUCCGCACGAGGAUCACCCGUGUCAGGUAGGUCGCUGGUUAGUCG [ArgBX 28]	36.7	32.2	39.8	37.8	33.8
GGGAGGUAGGCGGCCGCCACUGAUUUUCAUAUAUAUAUAACAUGAGGAUCACCCAUGUAGAUAUACAGGACCGGGCCUAUUUUUU [aaaF]	30.2	18.8	21.9	18.2	14.2
GUUAUGAUAAGAAGGAGCGUCGAAAAUGGGUAAACAUGAGGAUCACCCAUGUAAAGGGAACGACAGGUAGGUCGCUUAUUAUAAC [AstromonsSSArgB#20]	86.8	190	270	161	154
AAAAGUAGGUCCAAUAAAACUACAUGUGAAGGAGCGCCCGAAAGGGCAGGUAGGUCGCACAUGAGGAUCACCCAUGUCCUACAAA [ArgEX 7 #OpenEnded]	50.1	86.1	103	86.1	71.8
AAAGCCACUUCGGCCGCCACUACAACAUGAGGAUCACCCAUGUACCUCGUGUACGGUCCGAGGAGUAGGACCGGGAAGUGGUGGA [(T1'')-(Trp1)-(Ms2)-(M')-(T2')-(M'')-(Trp2)-(T1')]	94		193	175	
GGGCUCGGAGUGCGGCGUGUUCCGCUCCGUCGAGGACCGGUACGGCCGCCACUCGACAUGAGGAUCACCCAUGUCCGAGCGCGCG [#1 Exclusion - Tryptophan A Attempt #6 (HarryS)]	19.2	21.2	41.7	51.4	9.64
GGGCAAGAGGGAAGGAGCGUUAGCUGAGUCACAUGAGGAUCACCCAUGUCGCACAUAGUAUGACAGGUAGGUCGCCCUCUACCCU [SS-ArgB14]	17.7	15.6	28.7	18.2	16.8
CUAUCCUUGCCGGAUGAAGGACACUGAGAAGGAGCGCGGUAAUCCGCAGGUAGGUCGCUCAGGAGUACAUGAGGAUCACCCAUGU [Xeonrave]	16.1	20.8	26.9	23.7	20.7
AUGACUCACAAAGAAGAUAAAAUGGGUGAACGAGGACCGGUACGGCCGCCACUCGGACAUGAGGAUCACCCAUGUCCAUGUGCAA [#24 Exclusion Tryptophan A]	16		24.3	21	
CUAUAUUAUAGAAGGAGCGUCGAAAAUGGGUAAACAUGAGGAUCACCCAUGUAAAGGGAACGACAGGUAGGUCGCUAUAAUAUAG [AstromonsSSArgB#13]	117	220	201	252	195
CACGCACGAUCGGCCGCCACUCAUGUAGCUUACAUGAGGAUCACCCAUGUAUUUUCUUUCUUUUAGAGGACCGGGAUCGUGCGUG [#03 Same State - Tryptophan B]	25		48.5	35	
UUUUUCGUAGGUUAAAGUUUAGAAACUGAAGGAGCGUGGUAAUACACAGGUAGGUCGCAGAUUUUACAUGAGGAUCACCCAUGUU [JR_ExcArginiA_Sub012]	26.9	24.5	20.7	26.2	21.1
GUAGGUCAGUGAUCCCGACCUACACUGGAAGGAGCGAGCGAAAGCUCAGGUAGGUCGCCAGAAACAUGAGGAUCACCCAUGUAAU [(A)''-(M)'-(A)'-(Arg1)-(Arg2)-(M1)-(M2)_Design1]	76.1	172	153	219	118
